Consider one substance from patent US7132258.

In the experiment the target is Gal4 DBD fusion of the LBD of hRARα (human). As to the kind of experiment: cell-based or functional assay.

Substance “full-length RAC3 expressed from pCMX.F.RAC3 (FLAG and HA epitope at the N-terminus) (from UniProt Q9Y6Q9 2-1424)” gave a ligand-dependent transcriptional activation by Gal4 DBD fusion of RAR on a Gal4-dependent luciferase reporter, A549 cells, 100 nM atRA of 2 fold.
